Assay: soluble fraction after stress (log2 fold change); higher = more stays soluble; pooled small domains, quantitative proteomics
Details: stress: 75 degC
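Also: 20 min heating vs room temperature control held 20 min.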

Sequence	soluble fraction (log2)
HMVDPRWETPDENLAEQIKSVMPVMWVYDREAKSFVERPAIDFSFSIFERTTLYIYDKDGNEIGFAR	-0.0443
HMKELASKYEISEYMKFLIENLDKSNFFYPIEKRESMINNIFSIYSKADLSKKELNMLWGMLKKLR	-2.31
HMKQDFVYNGFVEAKGDDLMVQINYKGETYYVTEGESFGGFTVKSANKDKVVLSGQGGAETVLEFR	-0.186
HMLTKGDRQSIRDSIIYMVGNAPRTLDYIVAESRYSEEDVIEAVRSLLSSHILSIDDSDMISLTRK	-1.02
HMATNVLEISTRNKNILIQDSLNLVESFYSKSDNQYWYKLVFKTKDDLNKFLQEVSEDENTITYKTSSI	-0.359
HMLSYFKIIKNGLVREGPASYYKIAENLEIGTIVQAFEKHDDWYLIKTHSGRIGWIVASDVTPQV	-3.62
HMKRISDEDLLVMRRIDEVHTYHPTWGYRTITRILRRDDHLLINPKKVRRIMRDMGIYTIYPK	-0.0338
HMSMFSEILRTLRKAKGLTQRELAGHLGVTQQMVAKWEKGQSTPGPDQLTRMAELLEVSTDTLLGR	-0.366
HMQKVPDAFKAEQVQTLITRLGVSRAELARTLDVSLSTVNKWASGAVEPKGSALVLLKVLWMHGFKAL	-2.85
HMLPVLEIGTMIRIIRQPHFGTIARVVALPEELTKVESETLVRILDAEFDDGTRVRIPRANVEVIE	-3.04
HMTDDPGLSRAENRELQTLLLDRGHDIGQPDGLIGAKTRAAIRAEQSRLNMPVNGRGGQKLLRALRL	0.262
HMVNYKEILRLSAEGNSQRQIAAGSGNSRNTVIEVLEAARARGITWPLDEPVTNEQLEAILFPNRY	-0.072
HMTAIWKTITATLTHDIATGKYAPGDRLPTEAQLAARFGVNRHTVRRAISDMNESGLTYSRRGAGVFVAQ	-2.56
HMNNQVTFSKFLNEVEDGRVVEVNIQGNNITGVLSDGSKFKTFSPNYPNLVEKLSEKGVSINASPL	0.0934
HMQEAATSLNAKILAKLRENNGTLAVSDKSDPALISSLFGVSKGNFKKAIGALYKNGQIVIHADRIEL	-0.813
HMLVIMKTGASEEEIGRVIERIEGEGLSAHVSRGTERTVIGVIGQGVDVHRIAGVLGGMSGVESLVPIS	0.0604
HMQISDTTELSTLITKVLSEQSDALVDFKNPKKQKQVIGYLTGQVLRASQGKANPGLVRSLLEEQLSALDS	0.0724
HMGEVPPGWSVEALAAIERDLAHHVGPVARVLVQRGARLHTTTDDLRSALANAITDDLARRRFMQP	-0.575
HMEILTLEELKRLMAKAKLKQNQISGHAGVSKQQISMILAGKRNITKDVSDNLKANLAEYFP	-0.651
HMLAAGTPLTVVTESSNLNIRQEPSTEAAVVGKAAKGEIVTLVEQTSGEWWKVSTKDGEEGYAYSRYL	0.678
HMRLPAISYSFARKHGVVLRLDGDRPVASLREGADPAILIEVKRHLDGAMGVEKVSEAAFDQLLSTTYA	-1.53
HMNYKDQISRYFQQAFHIYPKYQTMKNEEGNFTSKIFKDDKMIIEGVGKSKKKAEQDVSRKALIHFNVL	-0.376
HMLRDTTLLHIDSIVRDGSTAMANITVRDEGTDLEFPLQLRMERGDMGWQVVRIVNYRAYLEAVQKA	-0.351
HMIIMVNLYQIWDKEVQGLDSVGAKPEQIEARRQAIAAHFESKARQAGMSSKDIYATLDNFDTYSRQKTS	-2.26
HMQTKMVYSDLVNSIKSEQVSSMLVSGNTVTVTLTNGDKAKVKIPSLDTLQADVGKEMNDQMDKGTLKQE	0.18
HMQWQPSEEAMQRLEQHGIPRAFSFSQLDAFVLQGQEQGSNRNDWNTRFFRFIKNQWVYAQN	-2.59

Sequence	soluble fraction (log2)
HMKALYNLDYEKPLSGSYYTETTARAAVPTDIRKLGLIITYKTDATTNITEQFVGSSISAWTTSGNWKSLG	-1.77
HMSEQIALQFAKAKQHHTGIALKGIEALELRYKGYTGKEIAALYHTSPKSVFSWISRAKQKLRQN	-0.272
HMSRQAPIGHRIRGRRKDIGMTQNALAKAAGISPSYLNLIEHNRRSIGGGLLMRIAAILDIHPHTL	-2.87
HMREFQVMKQELQEMVHQRLDMSTELSDEAIGDVIDEVIMEKSRNMYISSVTKLTLRQELFNAIR	-1.68
HMFTLNEIIGQKIRNARISAGLTLDELSKMTGISAAQLSSLETGYRRANIDTLYAIAKAIGIDVSNLLKY	-1.39
HMNHNPSIARKISREIKRGAPPESLLNLARTVNDSYYRSLSFVSIAYSIKGKKSKELFEEAISNLT	-0.107
HMSVDAMDEANERKMAKTFNMIVLGGLLKIRPIVSIESVIKALRKTLPERHHHLIPMNEEAIHIGMDII	0.0832
HMFPDLTEDEQLIVDVLQRTGDLQINSLIVEANIPVNKMSEILFELEMKGVIRTLAGGVYQLL	-2.05
HMNMTDVLVVNQTVRGGTQITESMLSVKKVDKSSLPDNYLKASLKDEVVGKYFDLGLTSGGVLTKDNISVS	-0.154
HMKYRLLGENLQTIRKARGMKQQELADQIGINMQSLSKIERGLNYPTFETLEKIMNALGITPNELLSG	-0.82
HMTIRPEDVELVPAEDGYMQGDVVSNIFKGVHYELEVKANGYDWMVHTTKYVEVGSHVGIKVIPFNIQV	0.322
HMTALAVGDRVKMDKSATIYGTMRKFAAWVYATKLYVRGIDGNRVVVSTLKSGAITGAVDKKHLTK	-1.61
HMGSIGAMLSSPELYGKLATNPATRGFLSQPDFIAMLTDVQKNPDKFGSYMSDPRMMQVLSVALG	-0.231
HMNPMLEPAGEIRLSDGVLLRWQSERLPGDDTVRGPGSLYELGLYRVKVRVSAPQQGVRESSVELAGWRQV	-0.0501
HMGGLAHPASGEEMEHLFAHLEGELLKSGFLFPPDKAAGMMRNIRAMLTRADFTDQEVRTLRGMIVALSRG	-1.62
HMRLNIRTKNNYSYYTIIKDYTNLNGKRTTTIFEKLGNQQQVEERFGKVNTIENIKKYIEELNNE	-1.65
HMNAEQLAQVRRQKIGFIFQDFRLFPEYTVRDNILIPFYLDHRAPDEQMLHKLTGILGIAGKLHSRPAQL	-0.181
HMKIELTDQQKSLVVDEWNKGEANPPSLLQLIRLAYPDQPHLDGRSKEGKAVKAFLATRDINPLA	0.0244
HMLKHEEIQEYIKEQINSGTWKPKAKLPSLRDMSELFSTSIGTVLTAYSALEKKHIIYSIPRSGYYVLG	-4.48
HMLALVREQIERNVSNPTDEDIRKIRHDVMEVITRAGADAATVDIAIEIDSQKNILRAIATGATEL	-0.0966
HMALALDDLFDRYEQLQDQSLGDKTEEGQELRAMIRAYIEQEGLSVRVTRSTTNRELLELIEQEMEG	-0.306
HMLETILQIGKDGVGENLVKQVNDALEARELIKGRVLDNNLELDARTAAQILAKATRSEVVQVIGTKFV	-0.00194
HMDYLYHNGKEIDQGSIMYKMEDYSDGIFELQSAKYADGTELDEKELEELESTQELIDWVMIDFVS	0.675
HMRDANYFINPIHEWQKRYEALRASFVDRLPAQAVAQRFGYTITYIHLLRHQFKSGKIDFSEPVPEG	-4.19
HMGRRSKAMLSSALDAVPGLGEMRRKALISQFGSLKKLRGATPEEIAAVPGIGPKLAAAVHEAVSG	-0.0903
HMTMKVTADILNMRSEASTNSDIVTKLKKDDELKVIEETKDDDGVTWVKVDFNGQVGFVSKEFLG	0.237

Sequence	soluble fraction (log2)
HMPKHHIESVIPENFAGERLDKVLAVLWGTFSRAQLTRWIRDGSLLLDGHKVKPNTKVDGSEKIVLQAEVA	-1.27
HMSQEAKLAMPVTDLRLSARTLNALELANIRTVRDLVSHTEEQLLELRNFGETALAEVKEKLAALGLRLGM	0.0588
HMIGVNMEKSTVEKFANELNLPIDLLLKQLESAGIKKTSGAEELLEADKSALLNYLQIEHGA	0.725
HMHKPLRILVYEELRMLIMTGQIKPGTRMMEIDLAESMGVSRTPVREAIRQLEKDNLVTIEPRRGAYVSD	-2.71
HMAISEEEATNLALERVPGASAQDLRIQLEFDDGVQKYEGDIIYDGKEYDFEIDANTGTFLEWSE	-0.0521
HMSRVHHGFNISIARNRKGLKQAALADMLGISQQRLSQLENQRVVKDEILEKVSEATGVSVEDLKTIE	-0.08
HMRLPNHYGSVVKLSGKRRRPFMVRGGVYGYDDRGYPQYVIVGYTETREQGLTMLAEYNRNP	-3.17
HMPVFYVTGNRVNFRAGPSTGDRVIGSLSQGAAVEVLGPTDDAWINIRDSDGRVGYMSAQFLSQ	0.355
HMGADSFTGYTPIHKIDNPSDGINDGASYVVYFQKDGTDPTEFYKAVNANASTLAQLTSGTEYDLASSKKL	0.56
HMDYNYLVFVTNTGPRSIAVEDLEMTVSDGKLVVSSGADGETFDLSTLTKMYFSDAAVVSINDV	-1.1
HMETAESLLRRLIMLEDPAMQNAMYVLAVMLERGKQLVERAAKPHESGGILRVYEHKKSGDTFVVLDPR	-0.764
HMEITTEDIAAQVASWIVRLSEDLTSTDRAALQIEFEQWQQTDSRRAEIAHKMLSLIGQAEQLRKT	-0.712
HMNVVDTGTDANYRVKISAVNLNMRLGPSTSYKSKGYITPGNYTIIKTSGDWGKVKETGYWVALKYTSKIN	-3.16
HMLKDGPIGAYADSVIRDIIEKMERFSKEHINVDMLKIHEKIMLIDEPIIRMALLDEFHRVSHDN	-2.47
HMTMNYYDILSIKRDATLEEIQKAYKEKSFQFHPDFNKGISDDSMFRIIKEAYETLSDTEKRNQYDASLNK	0.45
HMTDDALIGKTAQVTVAIKPGSVGQITARVGDERVERLARASADAEIAAGSLVTIKSIAGDSVIVAPE	0.317
HMKNETFAITSEDAGKRLDVWLTNILGDYSRSYVERLVEQGNVTVGGKTVKAGYKLKAGDSVQVSIPGPK	0.144
HMYDRIKLLKLREKRGLTQYELAEKAGISVVTLNKIETSDMAKPFASTLKKIALALGVGIEELS	-2.2
HMAKPVKSPLPGSVIKVAVKVGQQIKRGDLLLTLESMKMENSILAEKDGVVKNIHVQAGQSVMQDDLLLDI	-0.88
HMDDVIDVYATYDVSPTNQISNIKLYSDAAHANPVTGEAGKSYNDITEGHPGYQFRWSGTTWVPI	-1.04
HMKTFQSYQTTSMSNVNLRKRANGTSTILKRIKVGDTVTVVGKSGNYYQIQFDGKEGYALIKYIDGTDSGA	-1.95
HMQPETIEDATNLYLEAARATLQLIEQNNVIARDVKRLLEHLDNDMARIETLLAEMLSRRDHWLRHIH	0.148
HMKKTAAKVLGESEGKPVTVQSGRYGPYVQLGSIRATLPKDLEQDDVTLDRALELISAKAERAGK	-0.0332
HMNTIIHPIRLAYVDSGSIKSMAEQAEIDVKILTSEANSQIFWAIGDEKQIDRLYNLISQVDIIQNK	-1.86
HMSAAYVYVTGTRVNQRDGPSTFDRVMGVLVEGTRVQLLRDQGQWAQIRSDLGTGWLSSGFLSRNG	-1.88

Source: the domain aggregation screens of Martell et al. (2025)
